Residue numbers refer to the chain shown, from its start. Each block holds one binder with its values, some of them ahead of it.
Assays:
[1] = target: T1, human TNFR1 on cells (HT1080, HeLa, Kym-1) (human, UniProt P19438 30-455); assay: cell-based or functional assay
T1 sequence (looked up): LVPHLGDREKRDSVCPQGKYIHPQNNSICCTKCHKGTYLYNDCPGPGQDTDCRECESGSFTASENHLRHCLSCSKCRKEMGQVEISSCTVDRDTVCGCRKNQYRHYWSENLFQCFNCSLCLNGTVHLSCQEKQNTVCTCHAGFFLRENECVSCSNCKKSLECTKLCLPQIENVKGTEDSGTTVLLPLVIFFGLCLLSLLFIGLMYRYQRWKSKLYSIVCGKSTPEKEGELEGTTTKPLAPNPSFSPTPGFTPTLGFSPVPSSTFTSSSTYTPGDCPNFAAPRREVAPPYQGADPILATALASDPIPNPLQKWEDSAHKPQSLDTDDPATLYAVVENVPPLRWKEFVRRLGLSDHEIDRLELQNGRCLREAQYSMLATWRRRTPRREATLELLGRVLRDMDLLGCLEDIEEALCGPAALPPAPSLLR

[2] = target: T2, human TNFR1-Fc fusion protein (human, UniProt P19438 29-211); assay: ELISA, immobilised human TNFR1-Fc
T2 construct: range 29-211; Made in stably transfected HEK293 cells; coated on ELISA plates or immobilised on QCM chips; also called huTNFR1-Fc; human TNFR-Fc; not shown: Fc part from vector pSecTagL1-Fc
T2 sequence (looked up): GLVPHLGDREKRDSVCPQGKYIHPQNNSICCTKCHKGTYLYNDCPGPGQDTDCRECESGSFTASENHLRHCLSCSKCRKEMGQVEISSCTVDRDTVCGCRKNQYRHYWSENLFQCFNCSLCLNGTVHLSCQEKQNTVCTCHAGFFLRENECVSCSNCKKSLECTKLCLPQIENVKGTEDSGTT

[3] = target: T1, human TNFR1 on cells (HT1080, HeLa, …); assay: cell-based or functional assay; remark: listed apart in the source
[4] = target: T2, human TNFR1-Fc fusion protein; assay: ELISA, immobilised human TNFR1-Fc; remark: listed apart in the source
[5] = target: T2, human TNFR1-Fc fusion protein; assay: QCM
[6] = target: T2, human TNFR1-Fc fusion protein; assay: QCM, soluble scFv, moderate receptor density
Protocol: (§1) Real-time binding dynamics in protein-protein interactions were determined by quartz crystal microbalance measurements (A-100 C-Fast or Cell-200 C-Fast, Attana, Stockholm, Sweden). One of the binding partners (ligand, e.g. TNFR1-Fc) was chemically immobilized on a carboxyl sensor chip according to the manufacturer's protocol at different densities (nearly 200 Hz in the case of saturating conditions to confirm previously published results and 50-100 Hz, in particular at about 50 Hz, to establish conditions of lower receptor density, better resembling the situation on the cellular surface). Binding experiments were performed with samples (analyte) diluted in PBST (PBS, 0.1% Tween 20) at pH 7.4 with a flow rate of 25 µl/min at 37° C. The chip was regenerated with 25 µl 5 mM NaOH or 20 mM glycine, pH 2.0. Every third measurement, an injection of running buffer was measured which was subtracted from the binding curve. Data were collected using the software provided by Attana for the particular device and analyzed by Attaché Office Evaluation software (Attana, Stockholm, Sweden) and TraceDrawe (ridgview instruments, Vange, Sweden).

[7] = target: T2, human TNFR1-Fc fusion protein; assay: ELISA, human TNFR1-Fc
[8] = target: T1, human TNFR1 on cells (HT1080, HeLa, …); assay: cell-based or functional assay; remark: listed apart in the source
[9] = target: T2, human TNFR1-Fc fusion protein; assay: QCM, human TNFR1-Fc immobilised
Protocol: as §1

[10] = target: T1, human TNFR1 on cells (HT1080, HeLa, …); assay: cell-based or functional assay; remark: listed apart in the source
[11] = target: T2, human TNFR1-Fc fusion protein; assay: QCM, human TNFR1-Fc immobilised, low receptor density (48 Hz)
Protocol: as §1

[12] = target: T2, human TNFR1-Fc fusion protein; assay: QCM, human TNFR1-Fc immobilised, high receptor density (195 Hz)
Protocol: (§2) FIG. 1. […] Applied were triplicates of five concentrations between 3.9 nM and 62.5 nM.
as §1

[13] = target: T2, human TNFR1-Fc fusion protein; assay: standard ELISA, human TNFR1-Fc
Protocol: as §2
Microtiter plates were coated with 100 µl of the indicated protein (1 µg/ml in PBS, see Table 3.3) and incubated at 4° C. over night. The residual binding sites were blocked with 2% MPBS (skim milk in PBS, 200 µl per well) at room temperature for 2 hours and subsequently washed twice with PBS. 100 µl of the samples diluted in 2% MPBS were incubated at room temperature for 1 hour prior to the last incubation step with 100 µl of the HRP conjugated detection antibodies in 2% MPBS. In the case of competition experiments, both analyzed protein samples were prepared individually (either titrated or diluted to a single concentration) and mixed before they were applied to the plate. Bound protein was detected with 100 µl TMB substrate solution, the HRP-reaction was stopped by the addition of 50 µl 1 M H2SO4 and the absorption at the wavelength of 450 nm was measured using the Infinite microtiter plate reader (TECAN, Maennedorf, Switzerland). Between each incubation step and in advance of the detection, the plates were washed three times with PBST and twice with PBS.

[14] = target: T1, human TNFR1 on cells (HT1080, HeLa, …); assay: cell-based or functional assay; remark: listed apart in the source
[15] = target: T2, human TNFR1-Fc fusion protein; assay: ELISA, human TNFR1-Fc; remark: listed apart in the source
[16] = target: T2, human TNFR1-Fc fusion protein; assay: phage ELISA on human TNFR1

B2: scFvIG11 (scFv, V domains shown)
VH: QVQLVQSGAEVKKPGSSVKVSCKASGYTFTDFYINWVRQAPGQGLEWIGEIVPTQGEAKYNDKFKARVTITADKSTSTAYMELSSLRSEDTAVYYCARWDFLDYWGQGTTVTVSS
VL: DIVMTQSPLSLPVTPGEPASISCRSSQSLLHSNGNTYLHWYLQKPGQSPQLLIYTVSNRFSGVPDRFSGSGSGTDFTLKISRVEAEDVGVYYCSQSTHVPYTFGGGTKVEIK
- fold KD compared with scFvIZI06.1 [5]: 2 fold
- fold reduced koff compared with scFvIZI06.1 [5]: ~3 fold
- koff [5]: 0.00026 s⁻¹
- relative koff (compared with scFvIZI06.1) [6]: 0.31 relative to scFvIZI06.1
- EC50 [7]: 2.6 nM
- IC50 (nM), approximated; inhibition of TNF (0.1 nM) induced IL-8 release [8]: ~300 nM
- Kd [9]: 24.9 nM
- koff [9]: 0.0036 s⁻¹
- kon [9]: 150000 M⁻¹ s⁻¹

B3: IgG13.7half (antibody, V domains shown)
VH: B2 VH with Q1H, T54S
VL: DVQMTQSPSSLSASVGDRVTITCRSSQSLLHSNGNTYLHWYQQKPGKAPKLLIYTVSNRFSGVPSRFSGSGSGTDFTLTISSLQPEDFATYYCSQSTHVPYTFGGGTKVEIKR
notes: Monovalent half IgG1
- IL-8 Inhibition IC50 [nM] (HT1080 cells, 0.1 nM soluble TNF) [1]: 63.3 nM
- EC50 [2]: 0.8 nM
- fold higher IC50 (IL-8 release inhibition) compared to Fab13.7 [3]: 1.8 fold
- fold increased EC50 compared to unmodified Fab13.7 [4]: 1.9 fold

B5: scFvT12B (scFv, V domains shown)
VH: B2 VH with Q1H, T54S
VL: B2 VL with S96G
- IC50 (nM), inhibition of TNF-induced IL-8 release from HT1080 cells [14]: 309 nM
- EC50 [15]: 1.14 nM
- relative koff (compared with scFvIZI06.1) [6]: 0.25 relative to scFvIZI06.1
- relative EC50 (compared with scFvIZI06.1) [16]: 0.017 relative to scFvIZI06.1
- EC50 [7]: 2 nM
- Improved (factor of EC50 regarding scFvIG11) [7]: 1.3 fold
- IC50 (nM), approximated; inhibition of TNF (0.1 nM) induced IL-8 release [8]: ~45 nM
- Improved (factor of IC50 regarding scFvIG11) [8]: ~6.7 fold
- Improved (factor of KD regarding scFvIG11) [9]: 4.1 fold
- Improved (factor of koff regarding scFvIG11) [9]: 2 fold
- Improved (factor of kon regarding scFvIG11) [9]: 2.1 fold

B6: scFvIZI06.1 (scFv, V domains shown)
VH: B2 VH with V52Y, T54Y, Q55S, E57H, K59Y, D62E
VL: B2 VL
notes: Made in the periplasm of E. coli TG1; also called ATROSAB scFv
- IC50 (nM), inhibition of TNF-induced IL-8 release from HT1080 cells [14]: 932 nM
- EC50 [15]: 3.07 nM
- koff [5]: 0.00076 s⁻¹
- relative koff (compared with scFvIZI06.1) [6]: 1 relative to scFvIZI06.1
- relative EC50 (compared with scFvIZI06.1) [16]: 1 relative to scFvIZI06.1
- EC50 [7]: 3.8 nM
- IC50 (nM), approximated; inhibition of TNF (0.1 nM) induced IL-8 release [8]: ~200 nM
- Kd [9]: 28.9 nM
- koff [9]: 0.014 s⁻¹
- kon [9]: 500000 M⁻¹ s⁻¹

The next lines start with the values.

- IL-8 Inhibition IC50 [nM] (HT1080 cells, 0.1 nM soluble TNF) [1]: 65.5 nM
- EC50 [2]: 0.7 nM
- fold higher IC50 (IL-8 release inhibition) compared to Fab13.7 [3]: 1.9 fold
- fold increased EC50 compared to unmodified Fab13.7 [4]: 1.7 fold
B1: Fab13.7-MSA (Fab)
heavy: HVQLVQSGAEVKKPGSSVKVSCKASGYTFTDFYINWVRQAPGQGLEWIGEIVPSQGEAKYNDKFKARVTITADKSTSTAYMELSSLRSEDTAVYYCARWDFLDYWGQGTTVTVSSASTKGPSVFPLAPSSKSTSGGTAALGCLVKDYFPEPVTVSWNSGALTSGVHTFPAVLQSSGLYSLSSVVTVPSSSLGTQTYICNVNHKPSNTKVDKKVEPKSCGGGGSGGGGSSLEAHKSEIAHRYNDLGEQHFKGLVLIAFSQYLQKCSYDEHAKLVQEVTDFAKTCVADESAANCDKSLHTLFGDKLCAIPNLRENYGELADCCTKQEPERNECFLQHKDDNPSLPPFERPEAEAMCTSFKENPTTFMGHYLHEVARRHPYFYAPELLYYAEQYNEILTQCCAEADKESCLTPKLDGVKEKALVSSVRQRMKCSSMQKFGERAFKAWAVARLSQTFPNADFAEITKLATDLTKVNKECCHGDLLECADDRAELAKYMCENQATISSKLQTCCDKPLLKKAHCLSEVEHDTMPADLPAIAADFVEDQEVCKNYAEAKDVFLGTFLYEYSRRHPDYSVSLLLRLAKKYEATLEKCCAEANPPACYGTVLAEFQPLVEEPKNLVKTNCDLYEKLGEYGFQNAILVRYTQKAPQVSTPTLVEAARNLGRVGTKCCTLPEDQRLPCVEDYLSAILNRVCLLHEKTPVSEHVTKCCSGSLVERRPCFSALTVDETYVPKEFKAETFTFHSDICTLPEKEKQIKKQTALAELVKHKPKATAEQLKTVMDDFAQFLDTCCKAADKDTCFSTEGPNLVGGAAAHHHHHH
light: DVQMTQSPSSLSASVGDRVTITCRSSQSLLHSNGNTYLHWYQQKPGKAPKLLIYTVSNRFSGVPSRFSGSGSGTDFTLTISSLQPEDFATYYCSQSTHVPYTFGGGTKVEIKRTVAAPSVFIFPPSDEQLKSGTASVVCLLNNFYPREAKVQWKVDNALQSGNSQESVTEQDSKDSTYSLSSTLTLSKADYEKHKVYACEVTHQGLSSPVTKSFNRGEC
notes: also called Fab13.7 MSA fusion protein

- IC50, LT [nM] (inhibition of IL-8 release from HT1080 cells induced by LTα) [10]: 0.65 nM
- IC50, TNF [nM] (inhibition of IL-8 release from HT1080 cells induced by 0.1 nM TNF) [10]: 4.1 nM
- Kd [11]: 1.6 nM
- koff [11]: 0.00062 s⁻¹
- Kd [12]: 0.23 nM
- EC50 [13]: 0.15 nM
B4: H398 (antibody, V domains shown)
VH: QVQLQESGAELARPGASVKLSCKASGYTFTDFYINWVKQRTGQGLEWIGEIYPYSGHAYYNEKFKAKATLTADKSSSTAFMQLNSLTSEDSAVYFCVRWDFLDYWGQGTTLTVSS
VL: B2 VL with T14S, P15L, E17D, P18Q, L42V, Q50K, V88L, Y92F, V109L

Reference: patent US10689452 (UNIVERSIT T STUTTGART, dated 2020)
